In article PMC10372118:

Tests used:
Experiment in all cases: BLI
[1] = target: human ACE2 polymorphism K26R (rs4646116) (human) (UniProt Q9BYF1)
[2] = target: human ACE2 polymorphism S19P (rs73635825) (human) (UniProt Q9BYF1)
[3] = target: truncated human ACE2 (residues 19-613 with a C-terminal AviTag and 6xHis-tag), biotinylated (human) (UniProt Q9BYF1)
[4] = target: human ACE2 polymorphism E35K (rs1348114695) (human) (UniProt Q9BYF1)

**Q.** For “SARS-CoV-2 Omicron BA.2 RBD (from UniProt P0DTC2) (domain or fragment)”, which Kd [1] is on record?
**A.** 5.18 nM

**Q.** And the Kd [2]?
**A.** 4.97 nM

**Q.** And the t1/2 [3]?
**A.** 2.7 min

**Q.** Which Kd [2] does the source give for “SARS-CoV-2 ancestral receptor-binding domain (RBD), recombinant (from UniProt P0DTC2) (domain or fragment)” here?
**A.** 14.4 nM

**Q.** For “SARS-CoV-2 RBD of Delta (B.1.617.2) (from UniProt P0DTC2) (domain or fragment)”, which Kd [4] is on record?
**A.** 43.3 nM

**Q.** What about the t1/2 [3] of the same substance?
**A.** 2.4 min

**Q.** For “SARS-CoV-2 RBD of Beta (B.1.351) (from UniProt P0DTC2) (domain or fragment)”, which t1/2 [3] is on record?
**A.** 165
